Assay results reported in paper PMC9949808 (eLife, 2023).

Assays:
[1] = target: photosystem II (PSII) core, one of the two cores of the dimer (Dunaliella salina); test: cryo-EM structure; native PSII purified from D. salina thylakoids (1% α-DM, sucrose gradient), in 25 mM MES pH 6.5, 1 mM CaCl2, 5 mM MgCl2, 0.1% α-DM; unstacked particles: C2S2 compact 2.43 Å, C2S2 stretched 2.62 Å, C2S 3.61 Å
PSII reaction centre = target: T1, PSII reaction centre (Dunaliella salina, UniProt A0A1C8XRK9+D0FY08); test: cryo-EM structure; type: binding; details: type a inferred
T1 construct: gene psbA; native D1/D2 heterodimer in PSII C2S2 supercomplex purified from D. salina

| stoichiometry N [1] | Compound | cryo-EM structure (PSII reaction centre) |
| --- | --- | --- |
| 2 | photosystem II (PSII) core, one of the two cores of the dimer (complex) | – |
| – | C=Cc1c(C)c2cc3nc(c4c5[nH]c(cc6nc(cc1[nH]2)C(C)=C6CC)c(C)c5C(=O)[C@@H]4C(=O)OC)[C@@H](CCC(=O)OC/C=C(\C)CCC[C@H](C)CCC[C@H](C)CCCC(C)C)[C@@H]3C [pheophytin] | PSII reaction centre chlorophylls (Chls), pheophytins, and quinone |
